From paper doi:10.1101/2020.05.06.071340

How the values were obtained:
TOC1-CCT [1] = target: T1, TOC1-CCT (Arabidopsis, UniProt Q9LKL2 533-575); assay: ITC
T1 chain: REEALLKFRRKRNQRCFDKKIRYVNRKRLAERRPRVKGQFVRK

TOC1-CCT [2] = target: T1, TOC1-CCT; assay: EMSA
CCT (NMR construct) = target: T2, CCT (NMR construct) (Arabidopsis, UniProt Q9LKL2 533-590); assay: NMR
T2 sequence: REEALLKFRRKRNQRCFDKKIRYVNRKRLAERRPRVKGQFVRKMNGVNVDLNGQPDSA

CCTN = target: T3, CCTN (Arabidopsis, UniProt Q9LKL2 533-565); assay: NMR
T3 chain: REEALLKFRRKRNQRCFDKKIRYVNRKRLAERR

Binder | Kd (TOC1-CCT [1]) [nM] | Kd (TOC1-CCT [2]) [nM] | binding result (CCT (NMR construct)) | binding result (CCTN)
AAAUAAAUGGAGGGGAAAAAUAAAU (ssRNA) [G-rich RNA probe] | 124 ± 8 | 110 ± 6 | – | –
UGGAGGGGA (ssRNA) [NMR RNA] | – | – | binds | binds
